This assay addresses Human FcγRII, His-tagged domain (R&D Systems, Cat # 1330-CD) (human) (UniProt P12318). The experiment in a line: SPR (Biacore 3000), His-tagged receptor captured by penta-His antibody on CM5 chip, antibody injected; steady-state RU relative to control.

Turning to Bapineuzumab (antibody), the Relative Binding Capability (%) came to 100%.
